Among the data in CN101443359A (GENENTECH INC, dated 2009) are Kd values, retold here.

By Kd is commonly meant the concentration at which binding is half-saturated. Lower therefore signals tighter binding.

One assay deals with T1, 重组人EGFL7蛋白 (human, UniProt Q9UHF1 24-273, limits assumed).
T1 construct: also called hEGFL7; 带polyHis标签的EGFL7
T1 sequence (looked up): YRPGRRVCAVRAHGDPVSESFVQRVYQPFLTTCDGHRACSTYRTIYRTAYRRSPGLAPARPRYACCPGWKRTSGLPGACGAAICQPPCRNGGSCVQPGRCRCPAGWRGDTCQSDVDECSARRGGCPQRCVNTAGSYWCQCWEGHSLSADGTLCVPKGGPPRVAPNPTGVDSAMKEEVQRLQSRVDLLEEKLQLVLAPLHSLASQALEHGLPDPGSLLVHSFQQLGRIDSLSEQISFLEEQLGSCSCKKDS
Nature of the assay: SPR, BIAcore 3000, room temperature, polyHis-tagged EGFL7 injected, 1:1 model, mAb stock in 50mM Tris/125mM NaCl. Background: SPR reads the build-up and loss of mass on a sensor chip optically.

The target of a further assay is T2, 重组小鼠EGFL7蛋白 (mouse, UniProt Q9QXT5 22-275, limits assumed).
T2 construct: also called mEGFL7; 带polyHis标签的EGFL7
T2 sequence (looked up): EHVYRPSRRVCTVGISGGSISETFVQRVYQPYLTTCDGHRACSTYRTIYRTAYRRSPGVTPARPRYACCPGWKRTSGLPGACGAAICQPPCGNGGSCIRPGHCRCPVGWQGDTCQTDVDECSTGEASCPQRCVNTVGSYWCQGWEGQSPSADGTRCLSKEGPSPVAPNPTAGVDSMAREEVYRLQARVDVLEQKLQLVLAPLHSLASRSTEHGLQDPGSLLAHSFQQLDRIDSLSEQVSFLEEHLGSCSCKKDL
The description is as above.

B1: 抗EGFL7鼠单抗4F11.1.8 (antibody, V domains shown)
VH: QIQLVQSGPELKKPGETVKISCKASGHTFTTYGMSWVKQAPGKGLKWMGWINTHSGVPTYADDFKGRFAFSLETSASTAHLQINNLKNEDTATYFCARLGSSAVDYWGQGTTVTVSS
VL: DIVLTQSPASLAVSLGQRATISCKASQSVDYDGDSYMSWYQQKPGQPPKLLIYGASNLESGIPARFSGSGSGTDFTLNIHPVEEEDAATYYCQQNNEDPYTFGGGTKVEIKR
notes: Hybridoma deposit PTA-7343
In the case of B1, the dissociation constant Kd in the assay with 重组人EGFL7蛋白 stood at 0.473 nM; in the assay with 重组小鼠EGFL7蛋白, 0.756 nM.
